The record followed here is PMC10341807, “Lung Surfactant Protein B Peptide Mimics Interact with the Human ACE2 Receptor” (International Journal of Molecular Sciences, 2023).

Assay [1] deals with T1, recombinant human ACE2 receptor construct (Homo sapiens, UniProt Q9BYF1).
T1 construct: included residues Glutamine 18 to Serine 740 of the full-length protein; 10xHis (C); purchased R&D Systems
Put plainly: Surface plasmon resonance (SPR) binding of peptides to immobilised rhACE2. The following applies: pH 7.4, read-out: ka. On the technique in general: SPR reads the build-up and loss of mass on a sensor chip optically.
Procedure: The binding of the solute to the sensor surface ligand results in an evanescent sensor response and is measured in response units (RU) that are proportional to the bound mass.
Expressed viral spike and human ACE2 receptor protein constructs were supplied by R&D Systems (https://www.bio-techne.com accessed on 25 May 2023). The recombinant human ACE2 receptor construct included residues Glutamine 18 to Serine 740 of the full-length protein with a C-terminal 10 Histidine tag.
The organic-solvated peptides were then diluted into 1–2000 dilutions in the HBS–EP buffer for injection. Binding measurements were then made by flowing a running buffer solution of the test sample in the HBS–EP buffer over the chip-associated ACE2 at a flow rate of 30 µL/min for 5 min to determine the binding affinity at 37 °C. […] The binding associated with control medium containing no peptide was subtracted from final affinity traces. The mean “on” and “off” rate constants (kon and koff) and the dissociation equilibrium constant (KD = koff/kon) were calculated using Biacore Insight Evaluation Software version 5, based on curve-fitting measurements.

The target of assay [2] is recombinant human ACE2 receptor construct (angiotensin-converting enzyme 2) (human) (UniProt Q9BYF1). Description: SPR; Biacore T100; ACE2 immobilised on the sensor chip, peptide (from 1 mg/mL in DMSO, diluted in HBS-EP buffer, 0.5 µg/mL) flowed at 30 µL/min for 5 min; 37 °C; HBS-EP: 10 mM Hepes pH 7.4, 150 mM NaCl, 3 mM EDTA, 0.005% surfactant P20.

Bridges are numbered along the chain shown (N, C = ends). Where no end group is shown, it is not given here.

recombinant human ACE2 receptor construct (angiotensin-converting enzyme 2) (human), sequence (Q9BYF1 18-740): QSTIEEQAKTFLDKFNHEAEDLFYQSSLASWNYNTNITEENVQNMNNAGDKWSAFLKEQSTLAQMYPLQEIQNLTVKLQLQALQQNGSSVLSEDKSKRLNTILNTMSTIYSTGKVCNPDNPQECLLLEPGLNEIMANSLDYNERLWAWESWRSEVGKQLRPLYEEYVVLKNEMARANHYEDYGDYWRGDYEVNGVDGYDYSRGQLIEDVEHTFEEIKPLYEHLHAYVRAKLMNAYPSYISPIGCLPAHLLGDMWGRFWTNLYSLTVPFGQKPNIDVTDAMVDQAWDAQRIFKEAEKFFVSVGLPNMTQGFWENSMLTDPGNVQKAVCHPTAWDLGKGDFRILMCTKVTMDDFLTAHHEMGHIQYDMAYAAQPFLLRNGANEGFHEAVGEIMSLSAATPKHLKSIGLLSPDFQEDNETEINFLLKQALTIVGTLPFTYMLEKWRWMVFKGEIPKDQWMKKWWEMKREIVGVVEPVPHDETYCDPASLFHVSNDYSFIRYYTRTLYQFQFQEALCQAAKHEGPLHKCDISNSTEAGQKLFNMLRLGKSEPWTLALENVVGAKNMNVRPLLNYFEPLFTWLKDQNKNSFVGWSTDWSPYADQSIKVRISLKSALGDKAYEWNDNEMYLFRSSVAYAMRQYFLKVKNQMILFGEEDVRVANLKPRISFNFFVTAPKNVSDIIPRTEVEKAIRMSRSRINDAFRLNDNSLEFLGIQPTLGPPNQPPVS
T1 sequence (Q9BYF1 18-740): as above

Consider “FPIPLPYCWLCRALIKRIQAMIPKGGRMLPQLVCRLVLRCS (disulfide 8-40, 11-34) [SMB]”, for which the kon in assay [1] is 6200 M⁻¹ s⁻¹.

On to “Super Mini-B (SMB), synthetic lung surfactant protein B peptide mimic”, for which, in assay [2], the Ka came out at 1.01e+08 M⁻¹, the Kd amounted to 9.87 nM, the Kobs (at 1.05 × 10^−7 analyte) is 0.000712 s⁻¹ and the koff is 6.12e-05 s⁻¹. Further, the kon in assay [2] worked out at 6200 M⁻¹ s⁻¹.

As to “FPIPLPYYWLYRALIKRIQALIPKGGRLLPQLVYRLVLRYS [B-YL]”, the kon in assay [1] is 21900 M⁻¹ s⁻¹.

What is called Kd is the free concentration of one partner at which half of the binding sites on the other are occupied at equilibrium, for simple one-to-one binding. For orientation: koff means a measure of how fast the partners let go of each other.
